Tests used:
[1] = biological target: Monomannosylated BSA (monomannose conjugated to bovine serum albumin) (bovine) (UniProt P02769)
[2] = biological target: Monomannosylated BSA (monomannose conjugated to bovine serum albumin) (bovine) (UniProt P02769); assay: parallel plate flow chamber; new bacteria appearing on 1Man-BSA surface

Chain of Monomannosylated BSA (monomannose conjugated to bovine serum albumin) (bovine) (P02769 25-607 limits assumed): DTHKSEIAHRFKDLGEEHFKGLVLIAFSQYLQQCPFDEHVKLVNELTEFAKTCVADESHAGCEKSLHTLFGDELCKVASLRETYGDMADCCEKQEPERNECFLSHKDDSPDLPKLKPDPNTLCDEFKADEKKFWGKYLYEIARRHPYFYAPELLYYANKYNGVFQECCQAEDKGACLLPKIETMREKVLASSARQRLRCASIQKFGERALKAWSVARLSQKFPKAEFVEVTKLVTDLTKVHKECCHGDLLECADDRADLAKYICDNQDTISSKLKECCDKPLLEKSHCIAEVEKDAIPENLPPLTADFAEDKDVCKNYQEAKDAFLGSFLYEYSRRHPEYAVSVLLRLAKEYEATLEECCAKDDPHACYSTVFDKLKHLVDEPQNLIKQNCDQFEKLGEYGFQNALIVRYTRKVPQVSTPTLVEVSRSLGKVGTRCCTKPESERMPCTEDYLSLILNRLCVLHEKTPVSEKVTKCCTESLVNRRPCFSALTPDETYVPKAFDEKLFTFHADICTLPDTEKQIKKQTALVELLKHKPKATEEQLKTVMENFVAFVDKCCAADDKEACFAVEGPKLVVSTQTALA

FimH-f18 (FimH adhesin variant of intestinal E. coli strain F18), in type I fimbriae on recombinant E. coli (from UniProt P08191 22-300)
first-order rate constant of the decline of stationary bacteria [1]: 3 s⁻¹ | initial attachments per minute in the field of view, at 0.5 dynes/cm^2 (attachments per minute) [2]: 102 | initial attachments per minute in the field of view, at 3.6 dynes/cm^2 (attachments per minute) [2]: 64 | initial attachments per minute in the field of view, at 7 dynes/cm^2 (attachments per minute) [2]: 32

Source: patent publication US20090325259A1, “USE OF ADHESION MOLECULES AS BOND STRESS-ENHANCED NANOSCALE BINDING SWITCHES” (priority 2002, published 2009)
